In PMC12528421:

Key:
Experiment in all cases: EMSA
GST-STAT3 = GST-STAT3 (human, UniProt P40763 1-770)
Flag-AS160 = target: T1, Flag-AS160 (human, UniProt O60343 1-1298)
T1 sequence: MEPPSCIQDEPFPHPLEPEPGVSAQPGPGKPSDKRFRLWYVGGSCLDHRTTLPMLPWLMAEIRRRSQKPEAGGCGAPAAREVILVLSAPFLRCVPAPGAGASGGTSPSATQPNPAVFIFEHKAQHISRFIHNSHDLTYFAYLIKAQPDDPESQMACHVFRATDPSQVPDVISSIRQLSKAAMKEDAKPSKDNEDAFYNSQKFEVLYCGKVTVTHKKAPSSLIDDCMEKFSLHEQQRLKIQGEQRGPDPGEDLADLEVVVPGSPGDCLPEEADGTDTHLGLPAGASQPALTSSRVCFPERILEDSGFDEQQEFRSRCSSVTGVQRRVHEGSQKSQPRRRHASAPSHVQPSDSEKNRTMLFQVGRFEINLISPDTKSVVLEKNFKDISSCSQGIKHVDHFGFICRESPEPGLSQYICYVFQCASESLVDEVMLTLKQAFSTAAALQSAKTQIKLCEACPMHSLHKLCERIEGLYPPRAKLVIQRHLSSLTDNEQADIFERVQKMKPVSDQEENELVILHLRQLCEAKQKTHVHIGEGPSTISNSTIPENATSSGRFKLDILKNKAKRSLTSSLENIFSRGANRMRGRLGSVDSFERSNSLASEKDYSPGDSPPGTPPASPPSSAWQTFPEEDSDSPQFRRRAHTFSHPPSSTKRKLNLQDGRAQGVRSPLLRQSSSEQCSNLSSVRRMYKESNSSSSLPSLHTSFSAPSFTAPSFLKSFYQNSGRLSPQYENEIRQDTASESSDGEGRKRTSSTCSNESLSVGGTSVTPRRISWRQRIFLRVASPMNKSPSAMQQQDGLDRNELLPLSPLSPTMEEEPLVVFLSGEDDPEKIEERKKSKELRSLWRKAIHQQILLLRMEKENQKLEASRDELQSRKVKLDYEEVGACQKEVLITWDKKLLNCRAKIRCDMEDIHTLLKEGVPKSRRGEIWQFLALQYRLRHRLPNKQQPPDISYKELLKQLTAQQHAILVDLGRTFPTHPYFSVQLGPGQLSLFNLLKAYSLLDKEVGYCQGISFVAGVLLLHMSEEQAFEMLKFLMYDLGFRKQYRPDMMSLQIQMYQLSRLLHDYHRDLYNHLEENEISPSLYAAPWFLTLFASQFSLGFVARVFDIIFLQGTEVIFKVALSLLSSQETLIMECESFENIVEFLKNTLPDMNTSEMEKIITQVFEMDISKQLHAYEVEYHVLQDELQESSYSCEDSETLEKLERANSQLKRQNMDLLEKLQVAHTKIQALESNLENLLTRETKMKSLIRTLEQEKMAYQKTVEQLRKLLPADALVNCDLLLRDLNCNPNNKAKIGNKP

GST-STAT3;Flag-AS160 [1] = target: T2, GST-STAT3;Flag-AS160 (human;human, UniProt P40763;O60343 1-770;1-1298, |)
GST-STAT3;Flag-AS160 [2] = target: T2, GST-STAT3;Flag-AS160; remark: listed apart in the source

T2 sequence (P40763 whole entry, one chain of several): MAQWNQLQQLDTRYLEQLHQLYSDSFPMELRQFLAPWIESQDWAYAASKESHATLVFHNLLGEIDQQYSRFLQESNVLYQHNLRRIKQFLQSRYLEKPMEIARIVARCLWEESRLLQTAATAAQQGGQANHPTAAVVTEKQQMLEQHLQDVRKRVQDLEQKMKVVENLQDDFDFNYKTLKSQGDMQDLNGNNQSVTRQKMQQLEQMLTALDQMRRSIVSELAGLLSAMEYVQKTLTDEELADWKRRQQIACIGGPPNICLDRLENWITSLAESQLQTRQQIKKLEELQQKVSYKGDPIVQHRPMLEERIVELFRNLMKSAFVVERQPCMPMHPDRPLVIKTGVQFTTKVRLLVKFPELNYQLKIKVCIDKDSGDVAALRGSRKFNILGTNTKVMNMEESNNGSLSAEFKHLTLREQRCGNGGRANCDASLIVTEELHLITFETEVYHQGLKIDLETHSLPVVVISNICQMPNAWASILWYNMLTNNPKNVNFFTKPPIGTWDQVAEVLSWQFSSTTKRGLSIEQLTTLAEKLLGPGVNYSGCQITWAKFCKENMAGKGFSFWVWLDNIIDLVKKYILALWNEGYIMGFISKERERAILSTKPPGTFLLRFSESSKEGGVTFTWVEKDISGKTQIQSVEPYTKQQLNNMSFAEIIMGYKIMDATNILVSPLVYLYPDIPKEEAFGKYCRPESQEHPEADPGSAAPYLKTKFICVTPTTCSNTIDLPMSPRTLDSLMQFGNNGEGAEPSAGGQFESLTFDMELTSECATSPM
GST-STAT3, sequence (P40763 whole entry): as the sequence (P40763 whole entry, one chain of several) above

B1: Classical STAT3 motif probe (dsDNA)
DNA 1: GATCCTTCTGGGAATTCCGATCCTTCTGGGAATTCCGATCCTTCTGGGAATTCC
DNA 2: GGAATTCCCAGAAGGATCGGAATTCCCAGAAGGATCGGAATTCCCAGA
Q: Does B1 bind (GST-STAT3)?
A: Result: binds

Q: Does B1 bind (Flag-AS160)?
A: Result: no binding

Q: What about the binding signal (GST-STAT3;Flag-AS160 [1]) of the same binder?
A: Its binding signal is over 2 fold vs STAT3 alone.

B2: Pax7 promoter bind site 1 probe (dsDNA)
DNA 1: ATATGTTTACAGAAAGACATATGTTTACAGAAAGACATATGTTTACAGAAAGACA
DNA 2: TGTCTTTCTGTAAACATATGTCTTTCTGTAAACATATGTCTTTCTGTAA
Q: Which results are given for B2?
A: binding result (GST-STAT3): binds; binding result (Flag-AS160): no binding; binding result (GST-STAT3;Flag-AS160 [2]): binds

B3: Myod1 promoter bind site 1 probe (dsDNA)
DNA 1: ATTGGATTCCTGGCATCCGTTGGATTCCTGGCATCCGTTGGATTCCTGGCATCCG
DNA 2: CGGATGCCAGGAATCCAACGGATGCCAGGAATCCAACGGATGCCAGGAA
Q: What does the source list for B3?
A: binding result (GST-STAT3): binds; binding result (Flag-AS160): no binding; binding result (GST-STAT3;Flag-AS160 [2]): binds

B4: Myod1 promoter bind site 3 probe (dsDNA)
DNA 1: CAGATATTCTCTGAGCCATTCCCAGATGAGATATTCTCTGAGCCATTCCCAGATGG
DNA 2: CCATCTGGGAATGGCTCAGAGAATATCTCATCTGGGAATGGCTCAGAGAAT
Q: Does B4 bind (GST-STAT3)?
A: Result: binds

Q: Does B4 bind (Flag-AS160)?
A: Result: no binding

Q: Does B4 bind (GST-STAT3;Flag-AS160 [2])?
A: Result: binds

B5: Myod1 promoter bind site 2 probe (dsDNA)
DNA 1: ACATTGTTCCTGGATATGACATTGTTCCTGGATATGACATTGTTCCTGGATATGA
DNA 2: TCATATCCAGGAACAATGTCATATCCAGGAACAATGTCATATCCAGGAA
Q: Does B5 bind (GST-STAT3)?
A: Result: binds

Q: Does B5 bind (Flag-AS160)?
A: Result: no binding

Q: Does B5 bind (GST-STAT3;Flag-AS160 [2])?
A: Result: binds

B6: Pax7 promoter bind site 3 probe (dsDNA)
DNA 1: AATTCTTCCGGGGATGTCAATTCTTCCGGGGATGTCAATTCTTCCGGGGATGTC
DNA 2: GACATCCCCGGAAGAATTGACATCCCCGGAAGAATTGACATCCCCGGA
Q: Does B6 bind (GST-STAT3)?
A: Result: binds

Q: Does B6 bind (Flag-AS160)?
A: Result: no binding

Q: Does B6 bind (GST-STAT3;Flag-AS160 [2])?
A: Result: binds

B7: Pax7 promoter bind site 2 probe (dsDNA)
DNA 1: ATCCCATCCCCGGAAGCCCTCCCATCCCCGGAAGCCCTCCCATCCCCGGAAGCCC
DNA 2: GGGCTTCCGGGGATGGGAGGGCTTCCGGGGATGGGAGGGCTTCCGGGGA
Q: Does B7 bind (GST-STAT3)?
A: Result: binds

Q: Does B7 bind (Flag-AS160)?
A: Result: no binding

Q: Does B7 bind (GST-STAT3;Flag-AS160 [2])?
A: Result: binds
